Target: Aurora B-phosphorylated WT His-PKM2 (human, UniProt P14618 1-531, phosphothreonine at 45 (by Aurora B in vitro))
Assay: pull-down

Chain of Aurora B-phosphorylated WT His-PKM2 (P14618 whole entry): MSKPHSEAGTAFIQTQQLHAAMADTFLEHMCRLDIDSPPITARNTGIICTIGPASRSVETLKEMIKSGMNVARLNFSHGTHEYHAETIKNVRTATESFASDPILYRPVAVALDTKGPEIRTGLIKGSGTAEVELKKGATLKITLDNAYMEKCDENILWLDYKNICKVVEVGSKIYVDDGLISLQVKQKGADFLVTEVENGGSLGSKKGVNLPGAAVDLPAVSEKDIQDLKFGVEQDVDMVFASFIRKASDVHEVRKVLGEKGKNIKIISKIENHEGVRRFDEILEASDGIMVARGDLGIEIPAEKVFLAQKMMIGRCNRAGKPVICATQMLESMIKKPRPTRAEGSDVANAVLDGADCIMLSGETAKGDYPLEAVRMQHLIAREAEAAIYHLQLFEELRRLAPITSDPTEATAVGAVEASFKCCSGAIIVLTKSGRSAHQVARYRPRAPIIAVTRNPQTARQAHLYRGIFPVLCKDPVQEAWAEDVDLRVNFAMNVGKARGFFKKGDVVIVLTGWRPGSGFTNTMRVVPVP

B1: GST-MLC2 (wild type, recombinant) (natural protein)
chain: MAPKKAKKRAGGANSNVFSMFEQTQIQEFKEAFTIMDQNRDGFIDKNDLRDTFAALGRVNVKNEEIDEMIKEAPGPINFTVFLTMFGEKLKGADPEETILNAFKVFDPEGKGVLKADYVREMLTTQAERFSKEEVDQMFAAFPPDVTGNLDYKNLVHIITHGEEKD
Q: Does B1 bind?
A: binds

— article PMC4259466 (Nature communications, 2014)
